Results as given in US6464983.
pKd: −log10 of the molar value.

What was measured:
[1] = target: high affinity CTGF receptors on mouse fibroblasts (NTH3T3) (mouse); assay: 125I-rhCTGF binding to cells, competition binding assay
[2] = target: low affinity CTGF receptors on mouse fibroblasts (NTH3T3) (mouse); assay: as above
[3] = target: high affinity CTGF receptors on NRK-49F rat fibroblasts (rat); assay: 125I-rhCTGF binding to cell monolayers, Scatchard / competition with unlabeled CTGF
[4] = target: high affinity CTGF receptors on primary rat articular chondrocytes (rat); assay: as above
[5] = target: low affinity CTGF receptors on NRK-49F rat fibroblasts (rat); assay: as above
[6] = target: low affinity CTGF receptors on primary rat articular chondrocytes (rat); assay: as above

“iodinated recombinant human Connective Tissue Growth Factor (rhCTGF) (from UniProt P29279 27-349) (ligand)” showed a pKd [1] of 11.00 to 11.30, a Sites/cell [1] of 480 sites/cell and a pKd [2] of 8.74. It also gave a Sites/cell [2] of 102000 sites/cell, a pKd [3] of 10.64 to 10.89 and a pKd [4] of 10.68. It also gave a pKd [5] of 8.66 to 8.96, a pKd [6] of 9.00 and a Sites/cell [6] of 150000 sites/cell.
